From article PMC5521201

Target: T1, CTCF (UniProt P49711 1-727)
T1 sequence: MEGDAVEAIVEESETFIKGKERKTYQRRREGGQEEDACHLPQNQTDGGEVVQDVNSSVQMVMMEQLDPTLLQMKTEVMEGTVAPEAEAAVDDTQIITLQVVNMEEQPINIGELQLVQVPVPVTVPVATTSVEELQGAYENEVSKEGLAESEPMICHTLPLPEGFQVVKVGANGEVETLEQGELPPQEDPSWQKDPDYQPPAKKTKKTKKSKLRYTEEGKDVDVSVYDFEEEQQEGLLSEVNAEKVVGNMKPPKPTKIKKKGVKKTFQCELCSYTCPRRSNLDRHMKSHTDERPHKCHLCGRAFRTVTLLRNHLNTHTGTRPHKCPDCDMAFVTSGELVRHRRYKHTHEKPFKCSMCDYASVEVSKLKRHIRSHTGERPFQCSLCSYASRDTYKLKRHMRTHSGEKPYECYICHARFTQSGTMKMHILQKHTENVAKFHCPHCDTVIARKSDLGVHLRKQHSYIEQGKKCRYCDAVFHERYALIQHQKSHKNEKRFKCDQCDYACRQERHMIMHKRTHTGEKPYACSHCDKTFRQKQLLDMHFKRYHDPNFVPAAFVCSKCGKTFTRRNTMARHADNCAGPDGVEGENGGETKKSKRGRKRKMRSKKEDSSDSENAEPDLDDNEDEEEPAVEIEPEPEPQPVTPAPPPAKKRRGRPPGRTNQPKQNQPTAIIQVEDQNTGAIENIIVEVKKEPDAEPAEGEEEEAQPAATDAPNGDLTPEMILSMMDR
Experiment: EMSA

B1: CTCF WT (BZLF1 promoter CTCF site) (dsDNA)
DNA 1: TCGTCCAAATGGCCACGAGGGGGCGGGTGGCTCAGGTC
DNA 2: GACCTGAGCCACCCGCCCCCTCGTGGCCATTTGGACGA
binding result: binds
